Target: mCerulean3-BaxΔCTS
Assay: FRET or BRET; quantitative fast FLIM-FRET (qF3) in live HCT116 DKO cells stably expressing the donor ^CBaxΔCTS (1 to 3 µM) and transiently the Venus acceptor (0 to 50 µM); 10 µM Q-VD-OPH; fit to a Hill equation with h = 1; apparent Kd

Row | Kd [µM] | Substance
1 | 16.3 | Venus-tBid (domain or fragment)
2 | 17 | Venus-tBid(Nes2-BH3 C-ter) chimera (from UniProt P70444 1-81; P70444 101-195)

— article PMC12134178
